{"source": "the DeepSol protein solubility set"}
{"test": "soluble on expression in E. coli; label from the status in PepcDB or PDB records"}
{"sequence": "MTINTEVFIRRNKLRRHFESEFRQINNEIREASKAAGVSSFHLKYSQALLDRAIQREIDETYVFELFHKIKDHVLEVNEFLSMPPRPDIDEDFIDGVEYRPGRLEITDGNLWLGFTVCKPNEKFKDPSLQCRMAIINSRRLPGKASKAVIKTQ", "soluble on expression in E. coli": "soluble"}
{"sequence": "MSSSTSSVESVEDESCSNECSASFTFDTNNNSRGNNQVNELAEETHMKLSITPTRESFSLSQLERIITIGKGTFGRVELARDKITGAHYALKVLNIRRVVDMRQTQHVHNEKRVLLQLKHPFIVKMYASEKDSNHLYMIMEFVPGGEMFSYLRASRSFSNSMARFYASEIVCALEYIHSLGIVYRDLKPENLMLSKEGHIKMADFGFAKELRDRTYTICGTPDYLAPESLARTGHNKGVDWWALGILIYEMMVGKPPFRGKTTSEIYDAIIEHKLKFPRSFNLAAKDLVKKLLEVDRTQRIGCMKNGTQDVKDHKWFEKVNWDDTLHLRVEPPIVPTLYHPGDTGNFDDYEEDTTGGPLCSQRDRDLFAEW", "soluble on expression in E. coli": "not soluble"}
{"sequence": "VLTEMRADARVAILEELSEAELNFTLAKLDNLSLIEWAESLPDDIFSLALQLISRDELDLYDDAKQYDDDEVGHWADRKIATLPFNVSVGRAKKLLKTNLFESHQYMHLINRAHKFHGIVQYTDILTADDSVKINTLKLEDCLVLNVHQPLSESIEAIEHSAVPSVAIVDDENTLIGQLDWQFAINTQREIYETRLMAGTGMDEGDDLFSPIIKSSKKRGV", "soluble on expression in E. coli": "not soluble"}
{"sequence": "VDLSDEEKDSIYMFASLVEKMKSRPLNEILEDSKLQNLAQRVFASKARLNYALNDKAQKYNTLIEMNGKISEIMNIYDRLLEQQLQSINLS", "soluble on expression in E. coli": "soluble"}
{"sequence": "MKIVIIGGFLGGGKTTVLNHLLAESLKESLKPAVIMNEFGKMSVDGALVSEDIPLSELTEGCICCAMKADVSEQLHQLYLKEQPDIVFIECSGIAEPVSVLDACLTPILAPFTTITHMIGVIDASMYKHIKSFPKDIQGLFYEQLAYCSVLFVNKIDSADVETTSKLLKDLEVINPEADIQVGMHGSVTLPISVRQMTATSDNKHESLHKTINHQFVQSPVTCTKAEFIKRLACLPSHIYRLKGFMTFEDTTHTYLIQFTQGQYELTPVAFSKKVPEYLVLIGKGISKEDYQCLEQLEHHHHHH", "soluble on expression in E. coli": "not soluble"}
{"sequence": "KDIGSLTLALEQLKEKLRLKGYFDEENKLPKPHFPKRVAVITSQNSAAWADMKKIASKRWPMCELVCINTLMQGEGCVQSVVESIVYADSFHDTK", "soluble on expression in E. coli": "not soluble"}
{"sequence": "MEMSHRSSYFQSIIDEAGSLLRELMNIPDEYEVLFLQGGASLQFSMIPLNLMNTYKKAGYVLTGSWSKKALQEAEKVGEVQVIASSENEKFTTIPKLDGLLGDEKLDYVHITTNNTIEGTKYVDIPHVDKVPLVADMSPNILSERYDVSKFGLIYAGAQKNLGPAGLTIAIIKRDLIGGADRYCPTMLNYETYSKNNSLYNTLPSFSIYVTKLVLEWLKEQGGVSAIEEQNKMKSSLLYNFLDESKLLTSPVDPAYRSLMNIPFTTPSEELNNEFLQKAKERGLVTLKGHRSVGGMRASIYNAMPVQGVQQLVNYMKEFELENR", "soluble on expression in E. coli": "not soluble"}
{"sequence": "MAHHHHHHMGTLEAQTQGPGSMQKNMVETEPVQGCRDFPPEAMRCRRHLFDVFHATAKTFGFEEYDAPVLESEELYIRKAGEEITEQMFNFITKGGHRVALRPEMTPSLARLLLGKGRSLLLPAKWYSIPQCWRYEAITRGRRREHYQWNMDIVGVKSVSAEVELVCAACWAMRSLGLSSKDVGIKVNSRKVLQTVVEQAGVTSDKFAPVCVIVDKMEKIPREEVEAQLAVLGLEPTVVDAITTTLSLKSIDEIAQRVGEEHEAVKELRQFFEQVEAYGYGDWVLFDASVVRGLAYYTGIVFEGFDREGKFRALCGGGRYDNLLTTYGSPTPIPCAGFGFGDCVIVELLQEKRLLPDIPHVVDDVVIPFDESMRPHALAVLRRLRDAGRSADIILDKKKVVQAFNYADRVGAVRAVLVAPEEWERGEVQVKMLREGTGKEEGGAERGFAVPLDRLV", "soluble on expression in E. coli": "soluble"}
{"sequence": "GKKCFLTVRGNFSWNEDKIIENDDPRVQYPWMEKRGTNVNGRWGWIAEGLFTSEEEIMDHAKQFGEGHPGQISKVGDIKYKDLNGDGVIDDYDKCLIGQGDVPKIYYGFGADLQLGDFSVGALFAGNAKADRCLGGNAMYPFNDGSGITNLFANITDRWSADNPTNQDVFYPRLHHGNNANQNNMKTSTWWQKDVSFLRLKQLTIAYQLPKKLINQTFLKSARIYVMGTNLLTFSKFKLWDPELNTNNGTAYPNVRTYSVGVNVSF", "soluble on expression in E. coli": "not soluble"}
{"sequence": "MGSDKIHHHHHHMAIYEARGFSSYLYPYKGPLEPFDYIAQFRPLKPPEDIDIEEYKRTQAPYCLSGKVTAEKNGSYKRNNASLVYRDLIFLDYDEIETGVNLPKIVSQTLWEYSYIIYPTIKHTPEKPRYRLVMKPSDVMTEATYKQVVKEIADKIGLPFDLASLTWSQLQGLPVTTGDPEDYQRYVNHGLDYPVPKNGSTPNRQVVTTYTPRPRSQRSITMRVIDTLFNGFGNEGGRNVALTKFVGLLFNKWVDCDLETAYELVQIANSVTTKPLPIDEIDRTFTSIAKAEYRKRG", "soluble on expression in E. coli": "not soluble"}
{"sequence": "MGSDKIHHHHHHMKTNTSNQTTPQLATIKLFAMGCHIQISLYTTRLSAQYSQMTIDQQVAFLTSDVQQRLAYWEHIFSRFDDTSELMRLNNRGDQWSEVSSELFEVLQHAIHFVLKTQGLVTPTLLQPLWAAGYKHSFETLPKISMPSLPFTGLSAPSNVQDTTSANHANQQIGRIQLRQLTDGQHQVYLPTGMALDLNGYVKGWCAMQLAEHISRVHDWHIPCLVDMGGDIAIGIPRDPIDKPVTWGVAVAKPYFANSKHVQNDEDVAILKLSSGAVATSGQDYRRWWHDGRWQHHLIHPHDSRPVTSDVLTATVLATDTMTAEVYAKYCLLLGVKVAMAWLNKYHIAALLIDTDNKVMATSAIRPHLLQPNVVKSNVMSI", "soluble on expression in E. coli": "not soluble"}
{"sequence": "MVSDEDELNLLVIVVDANPIWWGKQALKESQFTLSKCIDAVMVLGNSHLFMNRSNKLAVIASHIQESRFLYPGKNGRLGDFFGDPGNPPEFNPSGSKDGKYELLTSANEVIVEEIKDLMTKSDIKGQHTETLLAGSLAKALCYIHRMNKEVKDNQEMKSRILVIKAAEDSALQYMNFMNVIFAAQKQNILIDACVLDSDSGLLQQACDITGGLYLKVPQMPSLLQYLLWVFLPDQDQRSQLILPPPVHVDYRAACFCHRNLIEIGYVCSVCLSIFCNFSPICTTCETAFKISLPPVLKAKKRN", "soluble on expression in E. coli": "soluble"}
{"sequence": "MDDIRKIERLAAASWPAYFQKSIGKWLLRANFGVTKRANSVWTSADMPEGDFQLEAELFYQSLGLPVCFHISNASPKGLDDALADSRYEKVDECFQMTALCRSIMSRTNDNSRFTYKWEQEPSSVWIDEFIQLEGFSPERHKGYKHIFERMPPCKTFFKMYDKESLTALGTVSVIDGYGGLSNIVVAEEHRGKGAGTQVIRVLTEWAKNNGAERMFLQVMKENLAAVSLYGKIGFSPISEHHYRIKRLEHHHHHH", "soluble on expression in E. coli": "not soluble"}
{"sequence": "NTKGIDEIKNLETDFNGRIGVYALDTGSGKSFSYRANERFPLCSSFKGFLAAAVLKGSQDNRLNLNQIVNYNTRSLEFHSPITTKYKDNGMSLGDMAAAALQYSDNGATNIILERYIGGPEGMTKFMRSIGDEDFRLDRWELDLNTAIPGDERDTSTPAAVAKSLKTLALGNILSEHEKETYQTWLKGNTTGAARIRASVPSDWVVGDKTGSCGAYGTANDYAVVWPKNRAPLIISVYTTKNEKEAKHEDKVIAEASRIAIDNLK", "soluble on expression in E. coli": "soluble"}
{"sequence": "MENTENSVDSKSIKNLEPKIIHGSESMDSGISLDNSYKMDYPEMGLCIIINNKNFHKSTGMTSRSGTDVDAANLRETFRNLKYEVRNKNDLTREEIVELMRDVSKEDHSKRSSFVCVLLSHGEEGIIFGTNGPVDLKKITNFFRGDRCRSLTGKPKLFIIQACRGTELDCGIETDSGVDDDMACHKIPVDADFLYAYSTAPGYYSWRNSKDGSWFIQSLCAMLKQYADKLEFMHILTRVNRKVATEFESFSFDATFHAKKQIPCIVSMLTKELYFYH", "soluble on expression in E. coli": "soluble"}
{"sequence": "SRVLMEQPGYAQMRKLILFQQYQFEPLFVRQKVGFDIDSVTQSTADALYITPSNQYPMGTTLNTEQRAQIIEWASNQEAWILEDDYDSEFQFAHRPYTSLQGLAAQMGRDERVLYIGSFSKVMFNGLRLGYLVVPESLVDKCLMVKDALSGDTPSHIQAAMADFISEGSLLRHIRKMRRVYKSKHEQVCFSIQHYFGDKVRVISQAAGLHVTLSWQQGIDENTWTQRAKKAGIVMRPVSFYEHPDFKARDWQGVVIGYGNVRLDNIDPLIKRLFELFDV", "soluble on expression in E. coli": "not soluble"}
{"sequence": "MKRRKQSRRWRGKKYAPVMIGMLVLLMNLADLKISNLISGSIICQAAERQSENTETENNSGGTEKEKITQTEASTVSDILEELDLSRVQRMLDQMLGEESFSMKDMLDGLIKGEKVLSEDTVQEMVHSFLFSGLEKEKS", "soluble on expression in E. coli": "not soluble"}
{"sequence": "MGSDKIHHHHHHMELLNSMSKSLDQLLSLVNHSEIASIKATLSKIIEVIHNPESSVMDLKNLIEIDPPLAANVLRRANSAFYGMRRGIHSIMDAIIFIGFDAVKELTLNQKFFELFQKNGVEIHGYSRRVLWEHSIGVALCGKLIYRREFRKNGGDMYTAGLIHDIGIIVEDQFLHAELLSILADKEEHERDLHSAEADVLGYCHEDIGKRLAEDWNFPEELCLVLGEAERPETSEGPRLLLADTLYVANCACQLRKVGFSELGRLDRPAYEDCLNRLRIKERALDFIMDEVNAQIALMKNDGWF", "soluble on expression in E. coli": "not soluble"}
{"sequence": "MGILFMSKVGLRGDRRSEGDEVLDPLRQALDSSMQSHNLYQHPQHLAFHVSAPVASTVQQASGLLGPLPHLSSFALQPAHSLLPPLGSHGAGFQENGAKAES", "soluble on expression in E. coli": "not soluble"}
{"sequence": "METAMSKGVITITDAEFESEVLKAEQPVLVYFWASWCGPCQLMSPLINLAANTYSDRLKVVKLEIDPNPTTVKKYKVEGVPALRLVKGEQILDSTEGVISKDKLLSFLDTHLNNN", "soluble on expression in E. coli": "soluble"}
{"sequence": "MSSPSGSSRTFPQYQSGSGWNAMLPKRTPRTAAPARRHFKSLVIGAGYTGLAAARRLAELQPQDQVLVVDATVAGEGSAGRNSGFLINLPHNTRMSGHHSPLEVARKQIAMLQSGLDWLAQLSGQGGFDCGWDLAGKYHAAATADGEQSLRGALQQYGQWGVAFSELDRDALQAQLGTRYYRFGYHSMNNVFVQPAALIRGLADSLPENVWLMEDNPVLSIDGSGPYKVRTRGGEFTADNVILANNAFARRLGFLRSRLVTIFTYAGVTPVLSPAQQALLGERDQWGVIPANRLGTTLRRISGGRFMVRSAYSYEAEQPLERMEQLLRDSFVRRYPDLAAHDFEYVWSGSTGLTGNGASFVGAIQPGLYASVGCNGAGVIKGTIYGKLLGEQVAGHRSAMLDDLASFEKPNWLPPEPLRRIGALSTIAYQARKAGLEKLEHHHHHH", "soluble on expression in E. coli": "not soluble"}
{"sequence": "MSDAAKPDRPDEALVLEYDFDAPPAKVWRAVTIPALRERWSPDCDLAGAEPESTIAGEEVRYRLRDSEPPFRESHVIFRIEPNEDGGTRFRIIQQACDDLAKLPQPANTNCRLMMAALEHHHHHH", "soluble on expression in E. coli": "soluble"}
{"sequence": "MADNPASSSSQQLLALRVMRLARPKFAPVDGFSHDPVDPTGFGELLAGKVSEISKESRQDLPIGEYLIAPQMFENIYLGETFTFYVNVVNESEKTVSSVSLKCELQTSTQRVVLPCSVQDATIESSKCEGQVISHEVKEIGQHILICSVNYKTSNGENMYFRKFFKFPVSKPIDVKTKFYSAENQDVYLEAQIENTSNANMFLEKVELDPSQHYNVTSIAHEDEFGDVGKLLKPKDIRQFLFCLTPADVHNTLGYKDLTSIGKLDMSWRTSMGEKGRLQTSALQRIAPGYGDVRLSVEKTPACVDVQKPFEVSCRLYNCSERALDLQLRLEQPSNRHLVFCSPSGVSLGQLPPSQHVDFSLNVFPVTVGIQSISGIRITDTFTKRIYEHDDIAQIFVS", "soluble on expression in E. coli": "not soluble"}
